The nanobody polyreactivity screen of Harvey et al. (2022)

Test: yeast display, Sf9 membrane polyspecificity reagent, FACS + sequencing; frameworks hold sequencing errors
Summary of the method: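 Synthetic nanobody libraries on Saccharomyces cerevisiae BJ5465 were galactose-induced for 36–48 hours, stained 1 hour at 4 °C with 10% biotinylated, detergent-solubilized Sf9 membrane reagent and enriched on streptavidin microbeads. FACS then separated cells into low and high (top ~1%) gates by anti-HA (expression) and streptavidin (reagent binding) fluorescence. Genes were colony-PCR amplified, MiSeq 2 × 250 sequenced and CDR-length filtered. A clone's polyreactivity label is that of its gate of origin.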

Row | Sequence | polyreactivity (PSR sort gate)
1 | QVQLVESGGGLVQAGGSLRLSCAASGRIFARYAMGWYRQAPGKERELVAAITTSGDSTYYADSVKGRFTISRDNAKNTVYLQMNSLKPEDTAVYYCAAERRYGRYYRLVRLLGQGTQVTVSS | high polyreactivity
2 | QVQLVESGGGLVQAGGSLRLSCAASGRIFASYAMGWYRQAPGKERELVAAISLRGGSTYYADSVKGRFTISRDNAKNTVYLQMNSLKPEDTAVYYCAAYHPHGFDYYRYYYWGQGTQVTVSS | high polyreactivity
3 | QVQLVESGGGLVQAGGSLRLSCAASGRIFASYAMGWYRQAPGKERELVAAISLSGGSTYYADSVKGRFTISRDIAKNTVYLQMNSLKPEDTAVYYCAAKNYRRYRDYYWGQGTQVTVSS | high polyreactivity
4 | QVQLVESGGGLVQAGGSLRLSCAASGRIFASYAMGWYRQAPGKERELVAAISWSGGSTNYADSVKGRFTISRDNAKNTVYLQMNRLKPEDTAVYYCAKKKRRGYGYDYWGQGTQVTVSS | high polyreactivity
5 | QVQLVESGGGLVQAGGSLRLSCAASGRIFASYAMGWYRQAPGKERELVASISWGGGSRTYADSVKGRFTISRDNAKNTVYLQMNSLKPEDTAVYYCAADVHYTFGMDYWGQGTQVTVSS | high polyreactivity
6 | QVQLVESGGGLVQAGGSLRLSCAASGRIFATNAMGLYRQAPGKERELVATITRSAGRTYYADSVKGRFTISRDNAKNTVYLQMNSLKPEDTAVYYCAASYWDTEPGYREYDYWGQGTQVTVSS | low polyreactivity
7 | QVQLVESGGGLVQAGGSLRLSCAASGRIFATNAMGWSRPAPGTERELVAGISDGGGSTYYAASVKGRFTISRDNAKNTVYLQMNRLKPEDTEVYYCAARVLDWRGDIHDSEYWGQGTQVTVSS | low polyreactivity
8 | QVQLVESGGGLVQAGGSLRLSCAASGRIFATNARGWYRQAPGKERELVAVISSGGSTNYADSVKGRFTISRDNAKNTVYLQMNSLKPEDTAVYYCAASPGSRPTQPYDYWGQGTQVTVSS | low polyreactivity
9 | QVQLVESGGGLVQAGGSLRLSCAASGRIFATYAMGWYRQAPGKERELVARITFTSGSTYYADSVKGRFTISRDNAKNTVYLQMNSLKPEDTAVYYCAAPWSVTRTSFDYWGQGTQVTVSS | high polyreactivity
10 | QVQLVESGGGLVQAGGSLRLSCAASGRIFAVNAMGWYRQAPGKERELVAAINGGGSTNYADSVKGRFTISRDNAKNTVYLQMNSLKPEDTAVYYCAADVGWRSQTRGYYWGQGTQVTVSS | high polyreactivity
11 | QVQLVESGGGLVQAGGSLRLSCAASGRIFAVYAMGWYRQAPGKEREFVAAISYSGGITYYADSVKGRFTISRDNAKNTVYLQMNSLIPEDTAVYYCNAYYYFWGQGTQVTVSS | low polyreactivity
12 | QVQLVESGGGLVQAGGSLRLSCAASGRIFAVYVMGWYRQAPGKERELVAAISQSGGRTYYADSVKGRFTISRDNAKNTVYLQMNSLITEDTAVYYCNTVTSRATNFSGLGYWGQGTQVTVSS | high polyreactivity
13 | QVQLVESGGGLVQAGGSLRLSCAASGRIFAWYAMGWYRQAPGKERELVAGISWIGGSTYYADSVKGRFTISRDNAKNTVYLQMNSLKPEDTAVYYCNARKKPGSRLDIIGYDYWGQGTQVTVSS | low polyreactivity
14 | QVQLVESGGGLVQAGGSLRLSCAASGRIFAWYSMGWYRQAPGEERELVAGISWICGSTYNADSVKGRFTISRDNAKNTVYLQMNSLKPEDTAVYYCNARKKPGSLLDIIGYDYWGQGTQVTVSS | low polyreactivity
15 | QVQLVESGGGLVQAGGSLRLSCAASGRIFAWYVMGWYRQAPGKEREFVAAIRWRSGSTHYADSVKGRFTISRDNAKNTVYLQMNSLKPEDTAVYYCARDVHGLLDYWGQGTQVTVSS | high polyreactivity
16 | QVQLVESGGGLVQAGGSLRLSCAASGRIFAYNAMGWYRQAPGKERELVAAITRSGGSTYYADSVKGRFTISRDNAKNTVYLQMNSLKPEDTAVYYCAKRYSYYIDDYWGQGTQVTVSS | low polyreactivity
17 | QVQLVESGGGLVQAGGSLRLSCAASGRIFAYYAMGWYRPAPGIERELVATIRGGGSTNYADSVKGRFTISRDNAKNTVYLQMNSLKPEATAVYYCAKPGAKWRGFDYWGLGTQVTVSS | low polyreactivity
18 | QVQLVESGGGLVQAGGSLRLSCAASGRIFAYYAMGWYRQAPGKDRELVATIRSGGDTNYADSVKGRFTISRDNAKNTVDIQMNSLKTEDTAVYYCNALYYWWYPHEYNYWGQGTQVTVSS | low polyreactivity
19 | QVQLVESGGGLVQAGGSLRLSCAASGRIFAYYAMGWYRQAPGKEREFLATITGRGGSTSYADSVKGRFTISRDNAKNTVYLQMNSLKPEDTAVYYCAKRVVVWYFGTGDYWVQGTQVTVSS | low polyreactivity
20 | QVQLVESGGGLVQAGGSLRLSCAASGRIFAYYAMGWYRQAPGKERELVAAITTNGGGTYYADSVKGRFTISRDNAKNTVYLQMNSLKPEDTAVYYCNAVKQRSSIFDYWGQGTQVTVSS | low polyreactivity
21 | QVQLVESGGGLVQAGGSLRLSCAASGRIFAYYAMGWYRQAPGKERELVAAITWRGGRTYYADSVKGRFTISRDNAKTTVYLQMNSLKPEDTAVYYCAARGYYSTYKLATDDYWGQGTQVTVSS | high polyreactivity

Row | Sequence | polyreactivity (PSR sort gate)
22 | QVQLVESGGGLVQAGGSLRLSCAASGRIFAYYAMGWYRQAPGKERELVASISSSGVSTYYADSVKGRFTISRDNAKNTVYLQMNSLKPEDTAVYYCAARQFSWDSQRYRHRYDYWGQGTQVTVSS | high polyreactivity
23 | QVQLVESGGGLVQAGGSLRLSCAASGRIFAYYAMGWYRQAPGKERELVATIRSGGDTNYADSVKGRFTISRDNAKNTVYLQMNSLKPEDTAVYYCNALYDWWYPHEYNYWGQVTQVTVSS | low polyreactivity
24 | QVQLVESGGGLVQAGGSLRLSCAASGRIFAYYAMGWYRQAPGTERELVAAITRRSGGITYYADSVKGRFTISRDNAKNTVYLQMNSLKPEDTAVYYCAARYRLSGKYRFTYDYWGQGTQVTVSS | high polyreactivity
25 | QVQLVESGGGLVQAGGSLRLSCAASGRIFAYYPMGWYRPAPGKERELVAAISRSGVSTYYADSVKGRFTISRDNAKNTVYLQMNSLKPEDTAVYYCAARWRSGFTSGDYWGQGTQVTVSS | low polyreactivity
26 | QVQLVESGGGLVQAGGSLRLSCAASGRIFAYYSMGWYRQAPGKERELVAAISRSGVSTYYADSVKGRFTISRDNAKNTVYLLMNSLKPEDTAVYYCAARWRSGFTSGDFWGQGTQVTVSS | low polyreactivity
27 | QVQLVESGGGLVQAGGSLRLSCAASGRIFAYYTMGWYRQAPGKERELVATISGSGASTYYADSVKGRFTISRDNAKNTDYLQMNSLKPEDTAVYYCAATRFYATIYDYWGQGTQVTVSS | high polyreactivity
28 | QVQLVESGGGLVQAGGSLRLSCAASGRIFAYYVMGWYRQAPGKERELVAVISGSGSSTYYADSVKGRFTISRDNAKNTVYLQMNSLKPEDTAVYYCAASIQLYRSFITREYWGQGTQVSVSS | high polyreactivity
29 | QVQLVESGGGLVQAGGSLRLSCAASGRIFDANAMGWYRQAPGKERELVAAITSSGGRTYYADSVKGRFTISRDNAKNTVYLQMNSLKPEDTAVYYCARAGRSWDTLYKYYLEHDYWGQGTQVTVSS | low polyreactivity
30 | QVQLVESGGGLVQAGGSLRLSCAASGRIFDCYAMGWYRQAPRKEREFVASISRRGGSTYYADSVKGRFTISRDNAKNTVYLQMNSLKPEDTAVYYCAADAFFRLDYYYWGQGTQVTVSS | high polyreactivity
31 | QVQLVESGGGLVQAGGSLRLSCAASGRIFDDNTMGWYRQAPGKERELVAVITSGGSTNYADSVKGRFTISRDNAKNTVYLQMNSLKPVDTAVYYCATEPGGYRFDDRAFQYGYWGQGTQVTVSS | low polyreactivity
32 | QVQLVESGGGLVQAGGSLRLSCAASGRIFDDYAMGRYRQAPGKERELVAAISWSGGSTYYADSVKGRFTISRDNAKNTVYLQMNSQKPVDTAVYYCSAPYHSYKRIGYDYWGQGTQVSVSS | low polyreactivity
33 | QVQLVESGGGLVQAGGSLRLSCAASGRIFDDYAMGWYRQAPGKERELVAAISSSGGSTYYADSVKGRFTISRDNAKNTVYLQMNSLKPEDTAVYYCARYPPGRRRYEYWGQGTQVTVSS | high polyreactivity
34 | QVQLVESGGGLVQAGGSLRLSCAASGRIFDFNPMGWYRQAPGKEREVVAAISSGGRTKYADSVKGRFTISRDNAKNTVYLQMNSLKPEDTAVYYCAASGSQPDDYWGQGTQVTVSS | high polyreactivity
35 | QVQLVESGGGLVQAGGSLRLSCAASGRIFDHYAMGWYRQAPGKERELVAAITRSGGITYYADSVKGRFTISRDNAKNTVYLQMNSLKPEDTAVYSCAALSYRYTDKFDYWGQGTQVTVSS | low polyreactivity
36 | QVQLVESGGGLVQAGGSLRLSCAASGRIFDHYARGWYRQAPGKERELVAAINSGGTTNYADSVKGRFTISRDNAKNTVYLQMNSLKPEDTAVYYCAARPRKGQYYFGGNYWGQGTQVTVSS | low polyreactivity
37 | QVQLVESGGGLVQAGGSLRLSCAASGRIFDHYTLGWYRQAPGKERDFVAAISSSGGSTYYADSVKGRFTSSRDTAKNTVYLQLNSLKPEDTAVYDCAAVYHRLWGYDYWGQGPQVTVSS | high polyreactivity
38 | QVQLVESGGGLVQAGGSLRLSCAASGRIFDIYAMGWYRQAPGKERELVAGITSVGSTNYADSVKGRFTISRDNAKNTVYLQMNSLKPEDTAVYYCAKDYLKSAAPSPQGLTHYEYWGQGTQVTVSS | low polyreactivity
39 | QVQLVESGGGLVQAGGSLRLSCAASGRIFDKYTMGWYRQAPGKERELVATITRGGVSMYYADSVKGRFTISRDNAKNTVYLQMNSLKPEDTAVYYCNAVWRLRVRYGYWGQGTQVTVSA | high polyreactivity
40 | QVQLVESGGGLVQAGGSLRLSCAASGRIFDLNAMGWYRQAPGKERELVAAITWSGDSTYYADSVKGRFTISRDNAKNTVYLQMNSLNPEDTAVYYCAAASRTSYSWVDYEFDYWGQGTQVTVSS | low polyreactivity
41 | QVQLVESGGGLVQAGGSLRLSCAASGRIFDLYTMGWYRQAPGKERELVAAIRWSDGSTYYADSVKGRFTISRDNAKNTVYLQMNSLKPEDTAVYYCARDADPNIGGYYYWGQGTQVTVSS | low polyreactivity
